One protein from article PMC3507683, “Crystal Structure of the Hexachlorocyclohexane Dehydrochlorinase (LinA-Type2): Mutational Analysis, Thermostability and Enantioselectivity” (PLoS ONE, 2012) can be followed below.

This data set concerns the molecule itself. Nature of the data set: crystal structure; hanging drop, 293 K, 0.1 M trisodium citrate pH 5.5, 3% PEG 3350; space group P6(3)22; seven subunits in the asymmetric unit; 3.5 Å.

The stoichiometry N is a count of units in the complex or per binding partner.

B1: Hexachlorocyclohexane dehydrochlorinase LinA-type2 (enzyme, UniProt P51697 1-156, looked up)
chain: MSDLDRLASRAAIQDLYSDQLIGVDKRQEGRLASIWWDDAEWTIEGIGTYKGPEGALDLANNVLWPMYHETIHYGTNLRLEFVSADKVNGIGDVLCLGNLVEGNQSILIAAVYTNEYERRDGVWKFSKLNGCMNYFTPLAGIHFAPPGIHFAPSGA
notes: LinA-type2, gamma-hexachlorocyclohexane dehydrochlorinase variant obtained by PCR from metagenomic DNA of an HCH-contaminated soil (GenBank EU863871); It differs by 10 residues from LinA-type1 (= LinA-UT26 of Sphingobium japonicum UT26, 156 amino acids); The printed primers run from the ATG start codon to the last codon, without a stop codon; Homotrimer; also called -type2 protein; source: E. …
As for B1, the “stoichiometry N” value was 3.
